Here are results for 1 protein from patent US20180120314.

Series [1] addresses T1, Methyl Red (MR)-AAPV-NBD-UBI29-41.
T1 chain: AAPVKTGRAKRRMQYNRR

B1: human neutrophil elastase (HNE) (protein)
chain: IVGGRRARPHAWPFMVSLQLRGGHFCGATLIAPNFVMSAAHCVANVNVRAVRVVLGAHNLSRREPTRQVFAVQRIFENGYDPVNLLNDIVILQLNGSATINANVQVAQLPAQGRRLGNGVQCLAMGWGLLGRNRGIASVLQELNVTVVTSLCRRSNVCTLVRGRQAGVCFGDSGSPLVCNGLIHGIASFVRGGCASGLYPDAFAPVAQFVNWIDSIIQ
Regarding B1, in the series with TAMRA-AAPV-NBD-PMX, the “bacterial labelling by NBD fluorescence (confocal microscopy) after cleavage of the probe” value was “Once the probe has been cleaved by elastase, the bacteria are labelled by the probe element due to the fluorescence of NBD”; the “fluorescence of the cleaved TAMRA compound (spectrophotometer, ex 525 nm, Em 580 nm)” value was “the fluorescence of the cleaved TAMRA compound increases in an elastase dependent manner and are inhibited with an elastase inhibitor such as sivelestat”. In addition, in series [1], the “bacterial labelling (NBD fluorescence, confocal microscopy) after cleavage of the probe in a co-culture of bacteria and neutrophils” value was “These images confirm the ability of the probe to be cleaved by neutrophil derived HNE and to label bacteria”.
